According to patent US20220125891:

T1: human Regnase-1 of Example 15 (full length, GST tag cleaved off, BirA recognition sequence on the C-terminal side, biotinylated)
T1 sequence (Q5D1E8 1-599, looked up): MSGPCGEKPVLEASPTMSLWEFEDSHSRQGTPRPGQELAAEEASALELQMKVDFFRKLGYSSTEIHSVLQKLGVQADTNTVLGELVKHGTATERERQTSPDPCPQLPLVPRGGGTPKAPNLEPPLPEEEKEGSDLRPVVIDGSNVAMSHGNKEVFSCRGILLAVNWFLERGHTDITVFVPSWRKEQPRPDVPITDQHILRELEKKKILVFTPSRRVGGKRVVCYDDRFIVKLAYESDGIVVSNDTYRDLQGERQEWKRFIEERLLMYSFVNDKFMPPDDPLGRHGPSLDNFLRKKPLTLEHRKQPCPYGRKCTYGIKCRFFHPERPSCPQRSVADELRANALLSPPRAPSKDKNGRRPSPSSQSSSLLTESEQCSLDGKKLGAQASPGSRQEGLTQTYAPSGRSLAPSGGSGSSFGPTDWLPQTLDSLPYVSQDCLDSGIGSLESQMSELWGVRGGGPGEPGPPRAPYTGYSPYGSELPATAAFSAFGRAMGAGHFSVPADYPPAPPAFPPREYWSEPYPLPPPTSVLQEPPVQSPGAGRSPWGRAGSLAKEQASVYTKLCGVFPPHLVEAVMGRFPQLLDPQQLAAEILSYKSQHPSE

B1: IKKβ (manufactured by SignalChem) (protein)
chain: MSWSPSLTTQTCGAWEMKERLGTGGFGNVIRWHNQETGEQIAIKQCRQELSPRNRERWCLEIQIMRRLTHPNVVAARDVPEGMQNLAPNDLPLLAMEYCQGGDLRKYLNQFENCCGLREGAILTLLSDIASALRYLHENRIIHRDLKPENIVLQQGEQRLIHKIIDLGYAKELDQGSLCTSFVGTLQYLAPELLEQQKYTVTVDYWSFGTLAFECITGFRPFLPNWQPVQWHSKVRQKSEVDIVVSEDLNGTVKFSSSLPYPNNLNSVLAERLEKWLQLMLMWHPRQRGTDPTYGPNGCFKALDDILNLKLVHILNMVTGTIHTYPVTEDESLQSLKARIQQDTGIPEEDQELLQEAGLALIPDKPATQCISDGKLNEGHTLDMDLVFLFDNSKITYETQISPRPQPESVSCILQEPKRNLAFFQLRKVWGQVWHSIQTLKEDCNRLQQGQRAAMMNLLRNNSCLSKMKNSMASMSQQLKAKLDFFKTSIQIDLEKYSEQTEFGITSDKLLLAWREMEQAVELCGRENEVKLLVERMMALQTDIVDLQRSPMGRKQGGTLDDLEEQARELYRRLREKPRDQRTEGDSQEMVRLLLQAIQSFEKKVRVIYTQLSKTVVCKQKALELLPKVEEVVSLMNEDEKTVVRLQEKRQKELWNLLKIACSKVRGPVSGSPDSMNASRLSQPGQLMSQPSTASNSLPEPAKKSEELVAEAHNLCTLLENAIQDTVREQDQSFTALDWSWLQTEEEEHSCLEQAS
B2: TBK1 (manufactured by SignalChem) (protein)
chain: MQSTSNHLWLLSDILGQGATANVFRGRHKKTGDLFAIKVFNNISFLRPVDVQMREFEVLKKLNHKNIVKLFAIEEETTTRHKVLIMEFCPCGSLYTVLEEPSNAYGLPESEFLIVLRDVVGGMNHLRENGIVHRDIKPGNIMRVIGEDGQSVYKLTDFGAARELEDDEQFVSLYGTEEYLHPDMYERAVLRKDHQKKYGATVDLWSIGVTFYHAATGSLPFRPFEGPRRNKEVMYKIITGKPSGAISGVQKAENGPIDWSGDMPVSCSLSRGLQVLLTPVLANILEADQEKCWGFDQFFAETSDILHRMVIHVFSLQQMTAHKIYIHSYNTATIFHELVYKQTKIISSNQELIYEGRRLVLEPGRLAQHFPKTTEENPIFVVSREPLNTIGLIYEKISLPKVHPRYDLDGDASMAKAITGVVCYACRIASTLLLYQELMRKGIRWLIELIKDDYNETVHKKTEVVITLDFCIRNIEKTVKVYEKLMKINLEAAELGEISDIHTKLLRLSSSQGTIETSLQDIDSRLSPGGSLADAWAHQEGTHPKDRNVEKLQVLLNCMTEIYYQFKKDKAERRLAYNEEQIHKFDKQKLYYHATKAMTHFTDECVKKYEAFLNKSEEWIRKMLHLRKQLLSLTNQCFDIEEEVSKYQEYTNELQETLPQKMFTASSGIKHTMTPIYPSSNTLVEMTLGMKKLKEEMEGVVKELAENNHILERFGSLTMDGGLRNVDCL

Target: T1, human Regnase-1 of Example 15 (full …)

Protein	phosphorylation detected by Western blotting
B1	it was confirmed that human Regnase-1 is phosphorylated by IKKβ and TBK1
B2	it was confirmed that human Regnase-1 is phosphorylated by IKKβ and TBK1
